Numbering of substitutions follows the chain as printed. Names and notes keep the numbering of the source.
Substrate: O=[N+]([O-])c1ccc(OP(=O)(O)O)cc1
Experiment: purified protein, by the assay type
Details: other: substrate pNPP
[1] = Sts-2PGM(E481V), pH 5.0, 37 °C, pH 5.0
[2] = Sts-2PGM(E481V), pH 7.5, 37 °C, pH 7.5
[3] = Sts-2PGM(A446S/S552A), pH 7.5, 37 °C, pH 7.5
[4] = Sts-2PGM(S552A/S582Y), pH 5.0, 37 °C, pH 5.0
[5] = Sts-2PGM(S552A/S582Y), pH 7.5, 37 °C, pH 7.5
[6] = Sts-2PGM wild-type, pH 5.0, 37 °C, pH 5.0
[7] = Sts-2PGM wild-type, pH 7.5, 37 °C, pH 7.5
[8] = Sts-2PGM(Q372V/S582Y), pH 7.5, 37 °C, pH 7.5
[9] = Sts-1PGM, pH 5.0, 37 °C, pH 5.0
[10] = Sts-1PGM, pH 7.5, 37 °C, pH 7.5

B1: Sts-2PGM(E481V) (Mus musculus; E481V) (protein)
chain: ATISRRGILVVRHGERVDQVFGKSWLQQCTTADGKYYRPDLNFPRSLPRRSNGIKDFENDPPLSSCGIFQARLAGEALLDSGVRVTAVFASPALRCVQTAKHILEELKLEKKLKIRVEPGIFEWMKWVASKATLTFLTLEELKEANFNVDLDYRPALPRCSLMPAESYDQYVERCAVSMGQIINTCPQDMGITLIVSHSSALDSCTRPLLGLPPRECGDFAQLVRKIPSLGMCFCEENREDGKWDLVNPPVKTLTHGANSVFNWRNWISSN
- Km [1]: 200 ± 20 µM
- kcat [1]: 0.65 s⁻¹
- kcat/Km [1]: 3100 M⁻¹ s⁻¹
- Km [2]: 1000 ± 150 µM
- kcat [2]: 0.15 s⁻¹
- kcat/Km [2]: 150 M⁻¹ s⁻¹

B2: Sts-2PGM(A446S/S552A) (Mus musculus; A446S/S552A) (protein)
chain: B1 chain with A93S, V128E, S199A
- Km [3]: 640 ± 80 µM
- kcat [3]: 0.27 s⁻¹
- kcat/Km [3]: 420 M⁻¹ s⁻¹

B3: Sts-2PGM(S552A/S582Y) (Mus musculus; S552A/S582Y) (protein)
chain: B1 chain with V128E, S199A, S229Y
- Km [4]: 620 ± 100 µM
- kcat [4]: 2.9 s⁻¹
- kcat/Km [4]: 4700 M⁻¹ s⁻¹
- Km [5]: 1900 ± 200 µM
- kcat [5]: 0.43 s⁻¹
- kcat/Km [5]: 226 M⁻¹ s⁻¹

B4: Sts-2PGM (Mus musculus) (protein)
chain: B1 chain with V128E
- Km [6]: 1500 ± 80 µM
- kcat [6]: 0.3 s⁻¹
- kcat/Km [6]: 200 M⁻¹ s⁻¹
- Km [7]: 2000 ± 130 µM
- kcat [7]: 0.03 s⁻¹
- kcat/Km [7]: 15 M⁻¹ s⁻¹

B5: Sts-2PGM(Q372V/S582Y) (Mus musculus; Q372V/S582Y) (protein)
chain: B1 chain with Q19V, V128E, S229Y
- Km [8]: 700 ± 100 µM
- kcat [8]: 0.4 s⁻¹
- kcat/Km [8]: 571 M⁻¹ s⁻¹

B6: Sts-1PGM (Mus musculus) (protein)
chain: GPQKRCLFVCRHGERMDVVFGKYWLSQCFDAKGRYIRTNLNMPHSLPQRSGGFRDYEKDAPITVFGCMQARLVGEALLESNTVIDHVYCSPSLRCVQTAHNILKGLQQDNHLKIRVEPGLFEWTKWVAGSTLPAWIPPSELAAANLSVDTTYRPHIPVSKLAISESYDTYINRSFQVTKEIISECKSKGNNILIVAHASSLEACTCQLQGLSPQNSKDFVQMVRKIPYLGFCSCEELGETGIWQLTDPPILPLTHGPTGGFNWRETLLQE
- Km [9]: 20 ± 9 µM
- kcat [9]: 63.4 s⁻¹
- kcat/Km [9]: 3.15e+06 M⁻¹ s⁻¹
- Km [10]: 500 ± 60 µM
- kcat [10]: 70 s⁻¹
- kcat/Km [10]: 141000 M⁻¹ s⁻¹
